From IntAct's records for PubMed 31296862

B1: Type IV methyl-directed restriction enzyme EcoKMcrB subunit (Escherichia coli (strain K12)), P15005 (parent)
chain: MESIQPWIEKFIKQAQQQRSQSTKDYPTSYRNLRVKLSFGYGNFTSIPWFAFLGEGQEASNGIYPVILYYKDFDELVLAYGISDTNEPHAQWQFSSDIPKTIAEYFQATSGVYPKKYGQSYYACSQKVSQGIDYTRFASMLDNIINDYKLIFNSGKSVIPPMSKTESYCLEDALNDLFIPETTIETILKRLTIKKNIILQGPPGVGKTFVARRLAYLLTGEKAPQRVNMVQFHQSYSYEDFIQGYRPNGVGFRRKDGIFYNFCQQAKEQPEKKYIFIIDEINRANLSKVFGEVMMLMEHDKRGENWSVPLTYSENDEERFYVPENVYIIGLMNTADRSLAVVDYALRRRFSFIDIEPGFDTPQFRNFLLNKKAEPSFVESLCQKMNELNQEISKEATILGKGFRIGHSYFCCGLEDGTSPDTQWLNEIVMTDIAPLLEEYFFDDPYKQQKWTNKLLGDS
partner: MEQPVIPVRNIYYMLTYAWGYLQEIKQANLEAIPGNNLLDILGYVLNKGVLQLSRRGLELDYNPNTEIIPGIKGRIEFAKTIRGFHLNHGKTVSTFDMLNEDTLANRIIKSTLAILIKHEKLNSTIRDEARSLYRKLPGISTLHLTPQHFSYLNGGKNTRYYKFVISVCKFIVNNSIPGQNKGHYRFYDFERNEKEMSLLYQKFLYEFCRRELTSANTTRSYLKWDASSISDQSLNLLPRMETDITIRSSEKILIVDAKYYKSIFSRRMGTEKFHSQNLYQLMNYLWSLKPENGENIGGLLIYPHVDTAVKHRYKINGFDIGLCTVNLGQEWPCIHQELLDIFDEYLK

Variants of: B1
Conditions: with mcrc_ecoli mcrC

Row | Variant | effect of a mutation on the interaction
1 | MESIQPWIEKFIKQAQQQRSQSTKDYPTSYRNLRVKLSFGYGNFTSIPWFAFLGEGQEASNGIYPVILYYKDFDELVLAYGISDTNEPHAQWQFSSDIPKTIAEYFQATSGVYPKKYGQSYYACSQKVSQGIDYTRFASMLDNIINDYKLIFNSGKSVIPPMSKTESYCLEDALNDLFIPETTIETILKRLTIKKNIILQGPPGVGKTFVARRLAYLLTGEKAPQRVNMVQFHQSYSYEDFIQGYRPNGVGFRRKDGIFYNFCQQAKEQPEKKYIFIIDEINRANLSKVFGEVMMLMAHDKRGENWSVPLTYSENDEERFYVPENVYIIGLMNTADRSLAVVDYALRRRFSFIDIEPGFDTPQFRNFLLNKKAEPSFVESLCQKMNELNQEISKEATILGKGFRIGHSYFCCGLEDGTSPDTQWLNEIVMTDIAPLLEEYFFDDPYKQQKWTNKLLGDS [E298A] | with no effect
2 | MESIQPWIEKFIKQAQQQRSQSTKDYPTSYRNLRVKLSFGYGNFTSIPWFAFLGEGQEASNGIYPVILYYKDFDELVLAYGISDTNEPHAQWQFSSDIPKTIAEYFQATSGVYPKKYGQSYYACSQKVSQGIDYTRFASMLDNIINDYKLIFNSGKSVIPPMSKTESYCLEDALNDLFIPETTIETILKRLTIKKNIILQGPPGVGKTFVARRLAYLLTGEKAPQRVNMVQFHQSYSYEDFIQGYRPNGVGFRRKDGIFYNFCQQAKEQPEKKYIFIIDEINRANLSKVFGEVMMLMEHDKRGENWSVPLTYSENDEERFYVPENVYIIGLMNTADRSLAVVDYALRARFSFIDIEPGFDTPQFRNFLLNKKAEPSFVESLCQKMNELNQEISKEATILGKGFRIGHSYFCCGLEDGTSPDTQWLNEIVMTDIAPLLEEYFFDDPYKQQKWTNKLLGDS [R348A] | disrupting interaction strength
3 | MESIQPWIEKFIKQAQQQRSQSTKDYPTSYRNLRVKLSFGYGNFTSIPWFAFLGEGQEASNGIYPVILYYKDFDELVLAYGISDTNEPHAQWQFSSDIPKTIAEYFQATSGVYPKKYGQSYYACSQKVSQGIDYTRFASMLDNIINDYKLIFNSGKSVIPPMSKTESYCLEDALNDLFIPETTIETILKRLTIKKNIILQGPPGVGKTFVARRLAYLLTGEKAPQRVNMVQFHQSYSYEDFIQGYRPNGVGFRRKDGIFYNFCQQAKEQPEKKYIFIIDEINRANLSKVFGEVMMLMEHDKRGENWSVPLTYSENDEERFYVPENVYIIGLMNTADRSLAVVDYALRRAFSFIDIEPGFDTPQFRNFLLNKKAEPSFVESLCQKMNELNQEISKEATILGKGFRIGHSYFCCGLEDGTSPDTQWLNEIVMTDIAPLLEEYFFDDPYKQQKWTNKLLGDS [R349A] | disrupting interaction strength
